The values that follow come from paper PMC8287938, “Identification and structural analysis of the Schizosaccharomyces pombe SMN complex” (Nucleic Acids Research, 2021).

Where “and” joins values, the source holds several entries; their conditions need not be identical. Equal values may be shown once.

Series [1] concerns the target SpSMN/SpG2^ΔN80/SpG6/SpG7/SpG8^Δ35–58 complex (S. pombe) (UniProt Q09808). Briefly: SEC-SAXS; full length SpSMN complexes at various concentrations; molecular weight against the standard SpSMNΔ36–119S130D/SpG2ΔN80.
Series [2] concerns the molecule itself. The experiment in a line: SEC; gel filtration chromatography of MBP-YG-domain 252–284 fusion proteins. In general terms: Size exclusion chromatography separates by hydrodynamic size, large species first.
Series [3] deals with the molecule itself. Briefly: SEC-SAXS; low concentrations (peak concentrations 5.8–16 μM); Superdex 200 10/300, 150 mM NaCl, 20 mM HEPES, 1 mM DTT, pH 7.5, 20°C.
Series [4] deals with the molecule itself. The experiment in a line: SEC-SAXS; full length SpSMN complexes at various concentrations; molecular weight against the standard SpSMNΔ36–119S130D/SpG2ΔN80.
For another series, the target named is T1, HsG7^46–131 (human, UniProt Q9H840 46-131).
T1 construct: human Gemin7, residues 46-131 (residues 47-131 in the model); also called human Gemin7 46-131; His6-HsG7^46–131; source: E. coli BL21(DE3), co-expressed with HsG6 1-92, purified
T1 sequence (looked up): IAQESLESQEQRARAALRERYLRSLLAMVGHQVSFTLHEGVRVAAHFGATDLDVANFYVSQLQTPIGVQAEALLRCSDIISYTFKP
The experiment in a line: crystal structure; HsG6 1–92/HsG7 46–131/HsG8 190–230, 1.52 Å, PDB 7BBL. Particulars: both partners purified.

For orientation: stoichiometry N means a count of units in the complex or per binding partner. As for “SpSMN/SpG2^ΔN80/SpG6/SpG7/SpG8^Δ35–58 complex (from UniProt Q09808 1-152; P0CU08 81-235)”, the stoichiometry N in series [1] amounted to 4.

B1: MBP-Hs-YG-domain^252–284 (wt) (domain or fragment, human, UniProt Q16637 252-284, looked up)
chain: DSLDDADALGSMLISWYMSGYHTGYYMGFRQNQ
notes: human SMN, YG-domain, residues 252-284; vector pETM-41; also called MBP fusion of human YG-box^252–284; wild-type construct; source: E. coli BL21(DE3), purified; immobilized on Amylose resin for the pull-down
In the case of B1, in series [2], the binding result is given as “binds”.

B2: MBP-Hs-YG-domain^252–284 H273R (domain or fragment, human, UniProt Q16637 252-284, looked up)
chain: DSLDDADALGSMLISWYMSGYRTGYYMGFRQNQ
notes: human SMN, YG-domain, residues 252-284, SMA-causing missense mutation H273R; source: E. coli BL21(DE3), purified; immobilized on Amylose resin for the pull-down
For the molecule B2, in series [2], the binding result is “binds”.

B3: SpSMN^Δ36–119S130D/SpG2^ΔN80 complex (complex, S. pombe)
chain 1: MDQSQKEVWDDSELRNAFETALHEFKKYHSIEAKGYDETYKKLIMDWYYAGYYTGLAEGLAKSEQRKD
chain 2: RKLEIEAGKKSFDPFLRYLLNIIDKEGERLEQYMESSSLDASILPKNLQQWRVYIEHKAPCWAILAVVDLATVLEILESLSSWLEKDAIDLQSQWIFCFCYKLPELLNGEDISTLRSVLKSLRSTHTSFPALQMSASALQAVLVYRYGQKDLFQT
notes: Gemin2 of Schizosaccharomyces pombe (SpG2) lacking the N-terminus (ΔN80); also called S130D mutant; source: E. coli BL21(DE3), co-expressed (SpSMNΔ36–119S130D/His6-SpG2ΔN80), purified (Ni-NTA, TEV, dialysis); not shown: His6, N-terminal, cleaved
On to B3, for which the “stoichiometry N” value in series [3] worked out at 2.

B4: SpSMN/SpG2^ΔN80 complex (complex, S. pombe)
chain 1: MDQSQKEVWDDSELRNAFETALHEFKKYHSIEAKGGVSDPDSRLDGEKLISAARTEESISKLEEGEQMINQQTETTLEGDTHIQQFADNKGLSDEKPETRAAETHQEFMEVPPPIRGLTYDETYKKLIMSWYYAGYYTGLAEGLAKSEQRKD
chain 2: RKLEIEAGKKSFDPFLRYLLNIIDKEGERLEQYMESSSLDASILPKNLQQWRVYIEHKAPCWAILAVVDLATVLEILESLSSWLEKDAIDLQSQWIFCFCYKLPELLNGEDISTLRSVLKSLRSTHTSFPALQMSASALQAVLVYRYGQKDLFQT
notes: SMN of Schizosaccharomyces pombe (SpSMN); Gemin2 of Schizosaccharomyces pombe (SpG2) lacking the N-terminus (ΔN80); source: E. coli BL21(DE3), co-expressed (SpSMN/His6-SpG2ΔN80), purified (Ni-NTA, TEV, dialysis); not shown: His6, N-terminal, cleaved
For B4, in series [4], the “stoichiometry N” value was 6 and 8.

B5: SpSMN^Δ36–119A134E/SpG2^ΔN80 complex (complex, S. pombe)
chain 1: MDQSQKEVWDDSELRNAFETALHEFKKYHSIEAKGYDETYKKLIMSWYYEGYYTGLAEGLAKSEQRKD
chain 2: RKLEIEAGKKSFDPFLRYLLNIIDKEGERLEQYMESSSLDASILPKNLQQWRVYIEHKAPCWAILAVVDLATVLEILESLSSWLEKDAIDLQSQWIFCFCYKLPELLNGEDISTLRSVLKSLRSTHTSFPALQMSASALQAVLVYRYGQKDLFQT
notes: Gemin2 of Schizosaccharomyces pombe (SpG2) lacking the N-terminus (ΔN80); also called A134E mutant; source: E. coli BL21(DE3), co-expressed (SpSMNΔ36–119A134E/His6-SpG2ΔN80), purified (Ni-NTA, TEV, dialysis); not shown: His6, N-terminal, cleaved
Take B5: the “stoichiometry N” value in series [3] turned out to be 2.

B6: HsG8^190–230 (domain or fragment, human, UniProt Q9NWZ8 190-230, looked up)
chain: TERPGERRQAEMKRLYGDSAAKIQAMEAAVQLSFDKHCDRK
notes: human Gemin8, residues 190-230 (also printed as 191-230; residues 191-227 in the model); also called HsG8^191–230; human Gemin8 C-terminus; source: E. coli BL21(DE3), purified (Glutathione Sepharose, PreScission); not shown: His6, N-terminal, cleaved; GST, N-terminal, cleaved
Regarding B6, in the series with HsG7^46–131, the binding result is given as “binds”.
